The values that follow come from patent publication US20260008817A1, “CYCLIC PEPTIDE OR SALT THEREOF, AND USES THEREOF” (FUJIFILM Corporation, priority 2023, published 2026).

Experiment [1] deals with T1, Recombinant Human FGFR1 alpha (IIIc) Fc Chimera Protein (Homo sapiens, UniProt P11362).
T1 construct: purchased R&D systems 658-FR-050
Put plainly: SPR binding affinity of chemically synthesized cyclic peptide to immobilized FGFR. The note with it: SPR binding amount at 10 nmol/L cyclic peptide, 25° C.; chemically synthesized product. As for the experimental part: The binding affinity of the cyclic peptide to FGFR was evaluated using a surface plasmon resonance (SPR) method.
(§1) The binding affinity of the chemically synthesized cyclic peptide to FGFR was evaluated by the following procedure.
A CM5 sensor chip (Cytiva, 29149603) was set in Biacore-T200 (manufactured by Cytiva) which is a surface plasmon resonance device, and an HBS-EP buffer (Cytiva, BR100826) was added as a running buffer at a flow rate of 10 μL/min to equilibrate the flow channel. Next, 70 μL of a mixed aqueous solution of 0.2 mol/L 1-(3-dimethylaminopropyl)-3-ethylcarbodiimide (EDC) and 0.05 mol/L N-hydroxysuccinimide (NHS) was added to activate the sensor chip. Then, Recombinant Human FGFR1 alpha (IIIc) Fc Chimera Protein CF (R&D systems, 658-FR-050) prepared at 50 nmol/L in an Acetate 4.5 buffer (Cytiva, BR100350) was added thereto to perform immobilization at about 5000 RU. Thereafter, the blocking treatment was performed with an ethanolamine solution. In addition, in another flow channel of the same sensor chip, blocking treatment was performed immediately after activation without immobilizing FGFR.
A cyclic peptide diluted to 10 nmol/L using HBS-EP was added to each flow channel of the FGFR-immobilized sensor chip produced above at 25° C. for 10 minutes, then HBS-EP was allowed to flow as a running buffer for 30 minutes, and the binding of the cyclic peptide to FGFR was measured. Thereafter, a regeneration treatment of removing the bound cyclic peptide was performed by repeating the flow of a regeneration liquid in which sodium chloride powder was dissolved in Glysine 1.5 (Cytiva, BR100354) to a final concentration of 0.15 mol/L for 1 minute in each flow channel twice. The binding amount of the cyclic peptide was evaluated from the difference between the measured value of Biacore-T200 in the flow channel in which FGFR was immobilized and the measured value of Biacore-T200 in the flow channel in which FGFR was not immobilised, in a case where a 10 nmol/L cyclic peptide was allowed to flow.
The binding amount of the cyclic peptide evaluated above was normalized to the binding amount of the cyclic peptide molecules per one molecule of FGFR using the molecular weights of the cyclic peptide and FGFR, and the binding affinity to FGFR was evaluated according to the following evaluation criteria. The evaluation result preferably satisfies the evaluation criteria A, B, or C.
• A: The binding amount is 0.7 molecules of the cyclic peptide/one molecule of FGFR or more. • B: The binding amount is 0.5 molecules of the cyclic peptide/one molecule of FGFR or more and less than 0.7 molecules of cyclic peptide/one molecule of FGFR. • C: The binding amount is 0.1 molecules of cyclic peptide/one molecule of FGFR or more and less than 0.5 molecules of cyclic peptide/one molecule of FGFR. • D: The binding amount is less than 0.1 molecules of the cyclic peptide/one molecule of FGFR.
In general terms: Surface plasmon resonance follows binding to a sensor surface in real time, without labels.

The target in experiment [2] is T2, FGFR3 Protein, Human, Recombinant (ECD, His Tag) (Homo sapiens, UniProt P22607).
T2 construct: FGFR3 Protein, Human, Recombinant (ECD, His Tag); His tag; purchased Sino Biological 16044-H08H
T2 sequence (P22607 23-375 limits assumed): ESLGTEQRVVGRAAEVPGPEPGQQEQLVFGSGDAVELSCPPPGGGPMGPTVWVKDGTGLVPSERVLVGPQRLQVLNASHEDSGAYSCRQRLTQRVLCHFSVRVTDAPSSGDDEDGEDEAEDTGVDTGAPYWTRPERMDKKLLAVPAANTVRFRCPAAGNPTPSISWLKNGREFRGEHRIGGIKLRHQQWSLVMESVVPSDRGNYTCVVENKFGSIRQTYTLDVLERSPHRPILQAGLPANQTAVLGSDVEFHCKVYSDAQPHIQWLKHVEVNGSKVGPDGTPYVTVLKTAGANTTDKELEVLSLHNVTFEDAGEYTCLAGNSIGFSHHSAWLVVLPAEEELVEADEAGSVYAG
Put plainly: SPR FGFR versatility, FGFR3 on immobilized cyclic peptide. It is filed as binding. Conditions: 1 μmol/L FGFR, 25° C. The procedure:
The binding of the cyclic peptide to various types of FGFRs was evaluated using a surface plasmon resonance (SPR) method.
as §1
A CM5 sensor chip (Cytiva, 29149603) was set in Biacore-T200 (manufactured by Cytiva) which is a surface plasmon resonance device, and an HBS-EP buffer (Cytiva, BR100826) was added as a running buffer at a flow rate of 10 μL/min to equilibrate the flow channel. Next, 70 μL of a mixed aqueous solution of 0.2 mol/L 1-(3-dimethylaminopropyl)-3-ethylcarbodiimide (EDC) and 0.05 mol/L N-hydroxysuccinimide (NHS) was added to activate the sensor chip. Then, a cyclic peptide prepared to 2 mg/mL in HBS-EP buffer was added thereto to perform immobilization at about 200 RU. […]
After various FGFRs (FGFR1 Protein, Human, Recombinant (His Tag) (Sino Biological, 10616-H08H), FGFR3 Protein, Human, Recombinant (ECD, His Tag) (Sino Biological, 16044-H08H), FGFR4 Protein, Human, Recombinant (His Tag) (Sino Biological, 10538-H08H)) diluted with HBS-EP to 1 μmol/L at 25° C. was added to each flow channel of the cyclic peptide-immobilized sensor chip prepared above, for 10 minutes, HBS-EP was allowed to flow as a running buffer for 30 minutes, and the binding of various FGFRs to the cyclic peptide was measured. […]

T1 sequence (P11362 with tags, fused parts or gaps limits assumed): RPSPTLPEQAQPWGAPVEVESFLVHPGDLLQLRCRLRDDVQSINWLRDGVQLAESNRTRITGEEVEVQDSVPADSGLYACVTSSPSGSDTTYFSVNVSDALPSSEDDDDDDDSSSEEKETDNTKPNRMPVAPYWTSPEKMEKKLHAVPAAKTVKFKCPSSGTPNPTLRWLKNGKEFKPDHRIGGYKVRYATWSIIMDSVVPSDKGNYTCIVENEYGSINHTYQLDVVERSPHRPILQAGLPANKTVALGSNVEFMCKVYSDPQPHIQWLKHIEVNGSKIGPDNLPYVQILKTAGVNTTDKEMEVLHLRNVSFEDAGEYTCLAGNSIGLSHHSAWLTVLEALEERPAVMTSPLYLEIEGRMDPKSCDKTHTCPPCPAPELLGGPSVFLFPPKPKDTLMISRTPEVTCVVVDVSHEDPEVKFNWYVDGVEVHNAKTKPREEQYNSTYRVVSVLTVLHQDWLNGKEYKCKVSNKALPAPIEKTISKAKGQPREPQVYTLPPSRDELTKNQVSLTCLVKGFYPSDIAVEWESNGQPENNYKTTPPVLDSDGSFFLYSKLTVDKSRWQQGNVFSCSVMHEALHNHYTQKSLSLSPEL

On to “335 (ACVWTFDRHAQEISQALHKVKKK; not fully specified; Description of Artificial Sequence: Cyclic peptide) [compound 335]”, for which, in experiment [1], the “Evaluation result of binding affinity to FGFR” value is “A (The binding amount is 0.7 molecules of the cyclic peptide/one molecule of FGFR or more.)”. Further, the “Evaluation result of binding affinity to FGFR3” value in experiment [2] is “B (The binding amount is 0.01 molecules of FGFR/one molecule of the cyclic peptide or more and less than 0.05 molecules of FGFR/one molecule of the cyclic peptide.)”.
